Experimental data published in publication PMC12697862.

Molecular target: IP3R1 channel fragment E
Experiment: co-IP (IP: Flag, immunoblot for Myc) with band quantification
Details: LV-GRP75-Flag(mutant) with IP3R1E-Myc; n = 5; means ± SEM; read off a plot

response (relative level of Myc/Flag (IP group))	Substance
0.47	GRP75, transfected for co-IP (from UniProt P38647) K567Q; K612Q
1	GRP75, transfected for co-IP (from UniProt P38647) K567R; K612R
